This note sets out measurements from the Human Domainome abundance scans (Beltran et al. 2025).

± gives the uncertainty stated by the source.

To fix the notation:
B1: Kinesin-like protein KIF16B, residues 1213 to 1273; numbered along this chain, Q96L93 (parent)
chain: ETWTVFRRYSRFREMHKTLKLKYAELAALEFPPKKLFGNKDERVIAERRSHLEKYLRDFFS

Variants of B1 are the subject of this series. The series can be described thus: abundance fitness (aPCA) (normalised: wild type 0, dead -1); higher = more abundant; growth selection in yeast, the domain comes from the species named. As to conditions: Homo sapiens.
Regarding ETWTVFRRYSRFREMHKTLKLKYAEWAALEFPPKKLFGNKDERVIAERRSHLEKYLRDFFS [L26W], the abundance fitness is -0.033 ± 0.067. On to ETWTVFRRYSRFREMHKTLKLKYAEPAALEFPPKKLFGNKDERVIAERRSHLEKYLRDFFS [L26P], for which the abundance fitness is -0.652 ± 0.14.

With ETWTVFRRYSRFREMHKTLKLKYAEEAALEFPPKKLFGNKDERVIAERRSHLEKYLRDFFS [L26E], the abundance fitness was -0.819 ± 0.15. As for ETWTVFRRYSRFREMHKTLKLKYAEQAALEFPPKKLFGNKDERVIAERRSHLEKYLRDFFS [L26Q], the figure is -1.04 ± 0.21; as for ETWTVFRRYSRFREMHKTLKLKYAEAAALEFPPKKLFGNKDERVIAERRSHLEKYLRDFFS [L26A], -0.661 ± 0.14. ETWTVFRRYSRFREMHKTLKLKYAEFAALEFPPKKLFGNKDERVIAERRSHLEKYLRDFFS [L26F]: the abundance fitness amounted to 0.158 ± 0.1. As for ETWTVFRRYSRFREMHKTLKLKYAEKAALEFPPKKLFGNKDERVIAERRSHLEKYLRDFFS [L26K], the figure is -0.279 ± 0.16; as for ETWTVFRRYSRFREMHKTLKLKYAEGAALEFPPKKLFGNKDERVIAERRSHLEKYLRDFFS [L26G], -0.667 ± 0.082; as for ETWTVFRRYSRFREMHKTLKLKYAESAALEFPPKKLFGNKDERVIAERRSHLEKYLRDFFS [L26S], -0.77 ± 0.14. Take ETWTVFRRYSRFREMHKTLKLKYAEYAALEFPPKKLFGNKDERVIAERRSHLEKYLRDFFS [L26Y]: the abundance fitness is -0.306 ± 0.34. As for ETWTVFRRYSRFREMHKTLKLKYAEMAALEFPPKKLFGNKDERVIAERRSHLEKYLRDFFS [L26M], the figure is -0.298 ± 0.085. As for ETWTVFRRYSRFREMHKTLKLKYAETAALEFPPKKLFGNKDERVIAERRSHLEKYLRDFFS [L26T], the figure is -0.851 ± 0.13; as for ETWTVFRRYSRFREMHKTLKLKYAENAALEFPPKKLFGNKDERVIAERRSHLEKYLRDFFS [L26N], -0.694 ± 0.19.

ETWTVFRRYSRFREMHKTLKLKYAECAALEFPPKKLFGNKDERVIAERRSHLEKYLRDFFS [L26C]: the abundance fitness is -0.047 ± 0.19. With ETWTVFRRYSRFREMHKTLKLKYAERAALEFPPKKLFGNKDERVIAERRSHLEKYLRDFFS [L26R] the figure was -0.872 ± 0.11; with ETWTVFRRYSRFREMHKTLKLKYAEDAALEFPPKKLFGNKDERVIAERRSHLEKYLRDFFS [L26D], -0.573 ± 0.19; with ETWTVFRRYSRFREMHKTLKLKYAEHAALEFPPKKLFGNKDERVIAERRSHLEKYLRDFFS [L26H], -0.946 ± 0.17.

In the case of ETWTVFRRYSRFREMHKTLKLKYAEVAALEFPPKKLFGNKDERVIAERRSHLEKYLRDFFS [L26V], the abundance fitness was -0.364 ± 0.079. On to ETWTVFRRYSRFREMHKTLKLKQAELAALEFPPKKLFGNKDERVIAERRSHLEKYLRDFFS [Y23Q], for which the abundance fitness was -0.393 ± 0.099.

With ETWTVFRRYSRFREMHKTLKLKTAELAALEFPPKKLFGNKDERVIAERRSHLEKYLRDFFS [Y23T], the abundance fitness was -0.379 ± 0.14. As for ETWTVFRRYSRFREMHKTLKLKSAELAALEFPPKKLFGNKDERVIAERRSHLEKYLRDFFS [Y23S], the figure is -0.528 ± 0.15; as for ETWTVFRRYSRFREMHKTLKLKWAELAALEFPPKKLFGNKDERVIAERRSHLEKYLRDFFS [Y23W], 0.177 ± 0.062; as for ETWTVFRRYSRFREMHKTLKLKLAELAALEFPPKKLFGNKDERVIAERRSHLEKYLRDFFS [Y23L], 0.279 ± 0.069.

ETWTVFRRYSRFREMHKTLKLKHAELAALEFPPKKLFGNKDERVIAERRSHLEKYLRDFFS [Y23H]: the abundance fitness is -0.128 ± 0.26. Regarding ETWTVFRRYSRFREMHKTLKLKIAELAALEFPPKKLFGNKDERVIAERRSHLEKYLRDFFS [Y23I], the abundance fitness was -0.034 ± 0.16. With ETWTVFRRYSRFREMHKTLKLKAAELAALEFPPKKLFGNKDERVIAERRSHLEKYLRDFFS [Y23A], the abundance fitness worked out at 0.068 ± 0.076.

In the case of ETWTVFRRYSRFREMHKTLKLKEAELAALEFPPKKLFGNKDERVIAERRSHLEKYLRDFFS [Y23E], the abundance fitness was -0.897 ± 0.14. As to ETWTVFRRYSRFREMHKTLKLKCAELAALEFPPKKLFGNKDERVIAERRSHLEKYLRDFFS [Y23C], the abundance fitness stood at 0.167 ± 0.078. Take ETWTVFRRYSRFREMHKTLKLKGAELAALEFPPKKLFGNKDERVIAERRSHLEKYLRDFFS [Y23G]: the abundance fitness is -0.42 ± 0.086. Take ETWTVFRRYSRFREMHKTLKLKVAELAALEFPPKKLFGNKDERVIAERRSHLEKYLRDFFS [Y23V]: the abundance fitness turned out to be 0.39 ± 0.092. With ETWTVFRRYSRFREMHKTLKLKMAELAALEFPPKKLFGNKDERVIAERRSHLEKYLRDFFS [Y23M] the figure was 0.051 ± 0.14; with ETWTVFRRYSRFREMHKTLKLKKAELAALEFPPKKLFGNKDERVIAERRSHLEKYLRDFFS [Y23K], -0.803 ± 0.28; with ETWTVFRRYSRFREMHKTLKLKPAELAALEFPPKKLFGNKDERVIAERRSHLEKYLRDFFS [Y23P], -1.06 ± 0.28. For ETWTVFRRYSRFREMHKTLKLKRAELAALEFPPKKLFGNKDERVIAERRSHLEKYLRDFFS [Y23R], the abundance fitness was -0.726 ± 0.094. As to ETWTVFRRYSRFREMHKTLKLKFAELAALEFPPKKLFGNKDERVIAERRSHLEKYLRDFFS [Y23F], the abundance fitness was 0.296 ± 0.13. Regarding ETWTVFRRYSRFREMHKTLKLKYAELCALEFPPKKLFGNKDERVIAERRSHLEKYLRDFFS [A27C], the abundance fitness was determined as 0.099 ± 0.087. As for ETWTVFRRYSRFREMHKTLKLKYAELNALEFPPKKLFGNKDERVIAERRSHLEKYLRDFFS [A27N], the figure is -0.281 ± 0.16. Turning to ETWTVFRRYSRFREMHKTLKLKYAELGALEFPPKKLFGNKDERVIAERRSHLEKYLRDFFS [A27G], the abundance fitness is -0.293 ± 0.047.

As for ETWTVFRRYSRFREMHKTLKLKYAELTALEFPPKKLFGNKDERVIAERRSHLEKYLRDFFS [A27T], the abundance fitness was 0.127 ± 0.078. ETWTVFRRYSRFREMHKTLKLKYAELKALEFPPKKLFGNKDERVIAERRSHLEKYLRDFFS [A27K]: the abundance fitness came to 0.286 ± 0.055. As to ETWTVFRRYSRFREMHKTLKLKYAELLALEFPPKKLFGNKDERVIAERRSHLEKYLRDFFS [A27L], the abundance fitness is -0.02 ± 0.061. With ETWTVFRRYSRFREMHKTLKLKYAELRALEFPPKKLFGNKDERVIAERRSHLEKYLRDFFS [A27R] the figure was 0.245 ± 0.053.

As for ETWTVFRRYSRFREMHKTLKLKYAELFALEFPPKKLFGNKDERVIAERRSHLEKYLRDFFS [A27F], the abundance fitness was -0.215 ± 0.32.
